Read-outs that look alike come from different tables or passages of the source. One block for each binder: values may come before it.
How the values were obtained:
[1] = target: VH1VL1-CD8ATD-CD137CSD-CD3zSSD fusion; assay: cell-based or functional assay
[2] = target: VL1VH3-CD8ATD-CD137CSD-CD3zSSD fusion; assay: cell-based or functional assay
[3] = target: VH2VL1-CD8ATD-CD137CSD-CD3zSSD fusion; assay: cell-based or functional assay
[4] = target: VH3VL1-CD8ATD-CD137CSD-CD3zSSD fusion; assay: cell-based or functional assay
[5] = target: murinPG-Fab-CAR; assay: cell-based or functional assay
[6] = target: T1, VH1VL1-CD8ATD-CD137CSD-CD3zSSD fusion; assay: NFAT-luciferase reporter assay, anti-P329G CAR Jurkat cells with WSUDLCL2 (CD20+) target cells
T1 construct: Chimeric antigen receptor on Jurkat NFAT reporter T cells; also called VH1VL1 P329G-CAR
Description: (§1) Binding of the CAR to an immobilized adapter molecule (e.g. a tumor antigen bound adapter molecule) leads to CAR crosslinking resulting in T cell activation and in the expression of luciferase. […] The 384 well plate was centrifuged for 1 min at 300 g and RT and incubated at 37° C. and 5% CO₂ in a humidity atmosphere. After 7 h incubation 20% of the final volume of ONE-Glo™ Luciferase Assay (E6120, Promega) was added, and plates were centrifuged for 1 min at 350×g. Afterwards, the relative luminescence units (RLU) per s/well were measured immediately using a Tecan microplate reader. Concentration-response curves were fitted and EC₅₀ values were calculated using GraphPadPrism version 7. As p value the New England Journal of Medicine style was used as listed in GraphPadPrism 7. Meaning *=P≤0,033; **=P≤0,002; ***=P≤0,001.

[7] = target: T2, VL1VH3-CD8ATD-CD137CSD-CD3zSSD fusion; assay: as above
T2 construct: Chimeric antigen receptor with scFv in VL-linker-VH orientation on Jurkat NFAT reporter T cells; the entry may be incomplete
Description: as §1

[8] = target: T3, VH2VL1-CD8ATD-CD137CSD-CD3zSSD fusion; assay: as above
T3 construct: Chimeric antigen receptor on Jurkat NFAT reporter T cells; also called VH2VL1 P329G-CAR
Description: as §1

[9] = target: T4, VH3VL1-CD8ATD-CD137CSD-CD3zSSD fusion; assay: as above
T4 construct: Chimeric antigen receptor with humanized anti-P329G scFv (VH-linker-VL), expressed on Jurkat NFAT reporter T cells; expression construct carried a T2A-GFP reporter
Description: as §1

[10] = target: T1, VH1VL1-CD8ATD-CD137CSD-CD3zSSD fusion; assay: cell-based or functional assay; remark: listed apart in the source
[11] = target: T2, VL1VH3-CD8ATD-CD137CSD-CD3zSSD fusion; assay: cell-based or functional assay; remark: listed apart in the source
[12] = target: T4, VH3VL1-CD8ATD-CD137CSD-CD3zSSD fusion; assay: cell-based or functional assay; remark: listed apart in the source
[13] = target: T1, VH1VL1-CD8ATD-CD137CSD-CD3zSSD fusion; assay: cell-based or functional assay; remark: listed apart in the source
[14] = target: T2, VL1VH3-CD8ATD-CD137CSD-CD3zSSD fusion; assay: cell-based or functional assay; remark: listed apart in the source
[15] = target: T1, VH1VL1-CD8ATD-CD137CSD-CD3zSSD fusion; assay: NFAT-luciferase reporter assay, anti-P329G CAR Jurkat cells with WSUDLCL2 (CD20+) target cells; remark: listed apart in the source
Description: as §1

[16] = target: T2, VL1VH3-CD8ATD-CD137CSD-CD3zSSD fusion; assay: as above; remark: listed apart in the source
Description: as §1

[17] = target: T3, VH2VL1-CD8ATD-CD137CSD-CD3zSSD fusion; assay: as above; remark: listed apart in the source
Description: as §1

[18] = target: T4, VH3VL1-CD8ATD-CD137CSD-CD3zSSD fusion; assay: as above; remark: listed apart in the source
Description: as §1

T2 sequence (chain, as listed by the source): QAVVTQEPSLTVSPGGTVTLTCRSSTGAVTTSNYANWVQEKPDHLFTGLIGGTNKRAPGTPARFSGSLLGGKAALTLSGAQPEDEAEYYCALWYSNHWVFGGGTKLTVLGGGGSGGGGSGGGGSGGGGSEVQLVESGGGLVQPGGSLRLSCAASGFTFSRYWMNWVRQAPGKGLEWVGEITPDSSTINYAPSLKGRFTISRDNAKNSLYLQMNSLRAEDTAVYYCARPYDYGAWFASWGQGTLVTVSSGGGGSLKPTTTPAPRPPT
T4 sequence (chain, as listed by the source): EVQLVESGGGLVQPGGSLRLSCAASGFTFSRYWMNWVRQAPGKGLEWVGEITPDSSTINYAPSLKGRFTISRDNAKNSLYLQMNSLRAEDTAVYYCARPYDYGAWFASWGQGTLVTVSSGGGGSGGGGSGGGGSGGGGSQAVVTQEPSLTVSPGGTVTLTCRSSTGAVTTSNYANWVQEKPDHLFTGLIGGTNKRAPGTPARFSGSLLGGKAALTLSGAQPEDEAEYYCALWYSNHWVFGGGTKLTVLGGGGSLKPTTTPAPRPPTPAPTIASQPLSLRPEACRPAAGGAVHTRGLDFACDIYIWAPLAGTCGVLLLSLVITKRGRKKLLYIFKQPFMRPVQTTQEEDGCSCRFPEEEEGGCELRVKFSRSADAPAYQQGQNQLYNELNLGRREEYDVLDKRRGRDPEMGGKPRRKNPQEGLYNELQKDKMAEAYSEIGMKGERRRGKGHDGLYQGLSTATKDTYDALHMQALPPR
T1 sequence (chain, as listed by the source): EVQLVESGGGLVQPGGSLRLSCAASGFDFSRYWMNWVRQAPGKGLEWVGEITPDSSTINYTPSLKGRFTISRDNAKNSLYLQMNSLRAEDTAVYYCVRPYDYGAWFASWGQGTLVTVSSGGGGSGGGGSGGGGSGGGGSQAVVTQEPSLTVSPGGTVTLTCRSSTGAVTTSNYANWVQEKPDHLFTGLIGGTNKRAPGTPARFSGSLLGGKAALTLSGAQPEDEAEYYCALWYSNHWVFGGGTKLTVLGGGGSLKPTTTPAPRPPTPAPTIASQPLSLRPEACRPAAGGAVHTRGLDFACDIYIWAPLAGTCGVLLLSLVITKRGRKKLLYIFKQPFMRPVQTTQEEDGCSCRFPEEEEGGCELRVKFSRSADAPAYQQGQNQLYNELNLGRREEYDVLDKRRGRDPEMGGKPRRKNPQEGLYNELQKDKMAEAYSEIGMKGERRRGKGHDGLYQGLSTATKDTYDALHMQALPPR
T3 sequence (chain, as listed by the source): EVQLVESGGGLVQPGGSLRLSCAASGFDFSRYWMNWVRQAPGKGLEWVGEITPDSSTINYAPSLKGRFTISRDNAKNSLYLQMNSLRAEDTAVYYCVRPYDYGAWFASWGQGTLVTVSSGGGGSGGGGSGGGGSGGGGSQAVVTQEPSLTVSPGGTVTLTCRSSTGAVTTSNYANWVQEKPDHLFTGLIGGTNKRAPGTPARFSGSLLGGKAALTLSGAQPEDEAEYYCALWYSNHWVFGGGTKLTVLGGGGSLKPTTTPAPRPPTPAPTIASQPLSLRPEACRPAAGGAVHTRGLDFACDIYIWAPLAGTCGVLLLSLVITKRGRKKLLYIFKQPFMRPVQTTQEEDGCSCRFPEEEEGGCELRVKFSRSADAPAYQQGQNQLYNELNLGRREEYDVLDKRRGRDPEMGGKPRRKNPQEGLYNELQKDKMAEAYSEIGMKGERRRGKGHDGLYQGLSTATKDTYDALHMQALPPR

EC50 of NFAT-luciferase activation of anti-P329G CAR Jurkat cells, WSUDLCL2 target cells (5:1); VH1 x VL1 [1]: 8.1 pM | EC50 of NFAT-luciferase activation of anti-P329G CAR Jurkat cells, WSUDLCL2 target cells (5:1); VL1 x VH 3 [2]: ~6.58 pM | EC50 of NFAT-luciferase activation of anti-P329G CAR Jurkat cells, WSUDLCL2 target cells (5:1); table row VH2 x VL1 [3]: ~6.93 pM | EC50 of NFAT-luciferase activation of anti-P329G CAR Jurkat cells, WSUDLCL2 target cells (5:1); VH3 x VL1 [4]: 7.57 pM
B1: anti-CD20 (GA101) P329G LALA IgG1 (antibody)
heavy: not shown
light: DIVMTQTPLSLPVTPGEPASISCRSSKSLLHSNGITYLYWYLQKPGQSPQLLIYQMSNLVSGVPDRFSGSGSGTDFTLKISRVEAEDVGVYYCAQNLELPYTFGGGTKVEIKRTVAAPSVFIFPPSDEQLKSGTASVVCLLNNFYPREAKVQWKVDNALQSGNSQESVTEQDSKDSTYSLSSTLTLSKADYEKHKVYACEVTHQGLSSPVTKSFNRGEC

EC50 (read off the curve); NFAT-luciferase, anti-P329G CAR Jurkat reporter cells (panel title murinPG-Fab-CAR activation) with WSUDLCL2 CD20+ target cells [5]: ~20 pM
B2: anti-CD20 (GA101) heterodimeric IgG1 (antibody)
heavy 1: QVQLVQSGAEVKKPGSSVKVSCKASGYAFSYSWINWVRQAPGQGLEWMGRIFPGDGDTDYNGKFKGRVTITADKSTSTAYMELSSLRSEDTAVYYCARNVFDGYWLVYWGQGTLVTVSSASTKGPSVFPLAPSSKSTSGGTAALGCLVKDYFPEPVTVSWNSGALTSGVHTFPAVLQSSGLYSLSSVVTVPSSSLGTQTYICNVNHKPSNTKVDKKVEPKSCDKTHTCPPCPAPELLGGPSVFLFPPKPKDTLMISRTPEVTCVVVDVSHEDPEVKFNWYVDGVEVHNAKTKPREEQYNSTYRVVSVLTVLHQDWLNGKEYKCKVSNKALGAPIEKTISKAKGQPREPQVYTLPPCRDELTKNQVSLWCLVKGFYPSDIAVEWESNGQPENNYKTTPPVLDSDGSFFLYSKLTVDKSRWQQGNVFSCSVMHEALHNHYTQKSLSLSP
heavy 2: QVQLVQSGAEVKKPGSSVKVSCKASGYAFSYSWINWVRQAPGQGLEWMGRIFPGDGDTDYNGKFKGRVTITADKSTSTAYMELSSLRSEDTAVYYCARNVFDGYWLVYWGQGTLVTVSSASTKGPSVFPLAPSSKSTSGGTAALGCLVKDYFPEPVTVSWNSGALTSGVHTFPAVLQSSGLYSLSSVVTVPSSSLGTQTYICNVNHKPSNTKVDKKVEPKSCDKTHTCPPCPAPELLGGPSVFLFPPKPKDTLMISRTPEVTCVVVDVSHEDPEVKFNWYVDGVEVHNAKTKPREEQYNSTYRVVSVLTVLHQDWLNGKEYKCKVSNKALPAPIEKTISKAKGQPREPQVCTLPPSRDEL
light: DIVMTQTPLSLPVTPGEPASISCRSSKSLLHSNGITYLYWYLQKPGQSPQLLIYQMSNLVSGVPDRFSGSGSGTDFTLKISRVEAEDVGVYYCAQNLELPYTFGGGTKVEIKRTVAAPSVFIFPPSDEQLKSGTASVVCLLNNFYPREAKVQWKVDNALQSGNSQESVTEQDSKDSTYSLSSTLTLSKADYEKHKVYACEVTHQGLSSPVTKSFNRGEC
modifications: defucosylated

EC50 of NFAT-luciferase activation of anti-P329G CAR Jurkat cells, WSUDLCL2 target cells (5:1); curve flat at 50-150 RLU/s, fit without meaning; VH1 x VL1 [10]: ~2.19 pM | EC50 of NFAT-luciferase activation of anti-P329G CAR Jurkat cells, WSUDLCL2 target cells (5:1); curve flat at 50-150 RLU/s, fit without meaning; VL1 x VH 3 [11]: ~78.3 pM | EC50 of NFAT-luciferase activation of anti-P329G CAR Jurkat cells, WSUDLCL2 target cells (5:1); curve flat at 50-150 RLU/s, fit without meaning; VH3 x VL1 [12]: ~85 pM
B3: anti-CD20 (GA101) wild type IgG1 (antibody)
heavy: not shown
light: DIVMTQTPLSLPVTPGEPASISCRSSKSLLHSNGITYLYWYLQKPGQSPQLLIYQMSNLVSGVPDRFSGSGSGTDFTLKISRVEAEDVGVYYCAQNLELPYTFGGGTKVEIKRTVAAPSVFIFPPSDEQLKSGTASVVCLLNNFYPREAKVQWKVDNALQSGNSQESVTEQDSKDSTYSLSSTLTLSKADYEKHKVYACEVTHQGLSSPVTKSFNRGEC
notes: also called WT GA101
binding result [6]: no binding (tested: just below 10^2 nM (67 nM per paragraph 404)) | binding result [7]: no binding (tested: just below 10^2 nM (67 nM per paragraph 404)) | binding result [8]: no binding (tested: just below 10^2 nM (67 nM per paragraph 404)) | binding result [9]: no binding (tested: just below 10^2 nM (67 nM per paragraph 404))

EC50 of NFAT-luciferase activation of anti-P329G CAR Jurkat cells, WSUDLCL2 target cells (5:1); curve flat at 60-150 RLU/s, fit without meaning; VH1 x VL1 [13]: ~0.0485 pM | EC50 of NFAT-luciferase activation of anti-P329G CAR Jurkat cells, WSUDLCL2 target cells (5:1); curve flat at 60-150 RLU/s, fit without meaning; VL1 x VH 3 [14]: ~0.000234 pM
B4: anti-CD20 (GA101) LALA IgG1 (antibody)
heavy: not shown
light: DIVMTQTPLSLPVTPGEPASISCRSSKSLLHSNGITYLYWYLQKPGQSPQLLIYQMSNLVSGVPDRFSGSGSGTDFTLKISRVEAEDVGVYYCAQNLELPYTFGGGTKVEIKRTVAAPSVFIFPPSDEQLKSGTASVVCLLNNFYPREAKVQWKVDNALQSGNSQESVTEQDSKDSTYSLSSTLTLSKADYEKHKVYACEVTHQGLSSPVTKSFNRGEC
binding result [15]: no binding (tested: just below 10^2 nM (67 nM per paragraph 404)) | binding result [16]: no binding (tested: just below 10^2 nM (67 nM per paragraph 404)) | binding result [17]: no binding (tested: just below 10^2 nM (67 nM per paragraph 404)) | binding result [18]: no binding (tested: just below 10^2 nM (67 nM per paragraph 404))
